{"source": "patent US20220331349A1", "about": "“TARGETED NANOPARTICLES AND THEIR USES RELATED TO FUNGAL INFECTIONS” (UNIVERSITY OF GEORGIA RESEARCH FOUNDATION, INC., priority 2019, published 2022)", "key": {"[1]": {"conditions": "cited from earlier work"}, "[2]": {"test_system": "A. fumigatus", "test": "sDectin-2 liposome and DEC2-Rhod binding to A. fumigatus", "design": "species or system Aspergillus fumigatus", "method": "C. albicans CAI4 expressing GFP under control of the ADH1 promoter, A. fumigatus A1163, and wild type C. neoformans H99-alpha were grown in Vogel's Minimal Media (VMM)+1% glucose (85)+0.5% BSA or RPMI 1640 media with no red indicator dye (ThermoFisher SKU— 11835-030)+0.5% BSA or YPD (1% yeast extract, 2% peptone, 2% dextrose) in liquid with shaking or on 24 or 96 well polystyrene microtiter plates or on glass microscope chamber slides and incubated at 37° C. for 3 to 36 hr. Plates were pre-coated with poly-L-lysine for A. fumigatus and glass microscope slides were pre-coated with […]. All fungal cell growth was carried out in a BSL2 laboratory. […]\nFormalin fixed fungal cells were incubated with liposomes at 23° C. in liposome dilution buffer LDB2 (20 mM HEPES, 10 mM Triethoanolamine, 150 mM NaCl, 10 mM CaCl2, 1 mM beta-mercaptoethanol (BME), 5% BSA pH 8.0), wherein the BME was added fresh. […] The area of liposome binding at 20× magnification was quantified by taking an 8-bit grey-scale copy of the unmodified red fluorescent TIF image into Image J (imagej.nih.gov/ij), using Image>Adjust>Threshold>Apply to capture just the red fluorescent areas illuminated by liposomes, and using Analyze>Measure to place the area data for each image in a file. Six to ten photographic images were generally analyzed and averaged for most area estimates. […]"}, "[3]": {"conditions": "cited from earlier work", "remark": "listed apart in the source"}}, "note": "Read-outs that look alike come from different tables or passages of the source."}
{"molecule": "sDectin-1: soluble extracellular C-terminal beta glucan binding domain of Dectin-1 (CLEC7A)", "values": [{"measurement": "EC50", "setting": "[1]; read-out: EC50s for binding various beta-glucans, strong end of range", "value": "≥ 2.2e-09", "unit": "mM"}, {"measurement": "EC50", "setting": "[1]; read-out: EC50s for binding various beta-glucans, weak end of range", "value": "≤ 2", "unit": "mM"}, {"measurement": "Kd", "setting": "[1]; read-out: Kd affinity constants for various beta-glucans, strong end of range", "value": "≥ 2.2e-09", "unit": "mM"}, {"measurement": "Kd", "setting": "[1]; read-out: Kd affinity constants for various beta-glucans, weak end of range", "value": "≤ 2.6", "unit": "mM"}]}
{"molecule": "DEC2-Rhod: Rhodamine labeled sDectin-2 protein (conjugate, UniProt Q6EIG7 42-209, looked up, extracellular domain rhodamine label, Rhodamine labeled sDectin-2 protein) extracellular domain: TYHFTYGETGKRLSELHSYHSSLTCFSEGTKVPAWGCCPASWKSFGSSCYFISSEEKVWSKSEQNCVEMGAHLVVFNTEAEQNFIVQQLNESFSYFLGLSDPQGNNNWQWIDKTPYEKNVRFWHLGEPNHSAEQCASIVFWKPTGWGWNDVICETRRNSICEMNKIYL", "values": [{"measurement": "binding to A. fumigatus cell wall", "setting": "[2]", "value": "did not stain the cell wall"}, {"measurement": "binding to exopolysaccharide matrix of A. fumigatus", "setting": "[2]; 1 hr, 1:200 dilution", "value": "bound strongly to most of the exopolysaccharide matrix surrounding A. fumigatus hyphal cells"}]}
{"molecule": "sDectin-2: soluble mannan-recognition domain of Dectin-2 (CLEC6A) (protein, UniProt Q6EIG7 42-209, looked up, extracellular domain) extracellular domain: TYHFTYGETGKRLSELHSYHSSLTCFSEGTKVPAWGCCPASWKSFGSSCYFISSEEKVWSKSEQNCVEMGAHLVVFNTEAEQNFIVQQLNESFSYFLGLSDPQGNNNWQWIDKTPYEKNVRFWHLGEPNHSAEQCASIVFWKPTGWGWNDVICETRRNSICEMNKIYL", "values": [{"measurement": "EC50", "setting": "[3]; read-out: Effective Concentration for 50% of binding (EC50), mannan-a-1-2-mannan", "value": "~2", "unit": "mM"}, {"measurement": "EC50", "setting": "[3]; read-out: Effective Concentration for 50% of binding (EC50), mannoglycan", "value": "~0.15", "unit": "mM"}, {"measurement": "EC50", "setting": "[3]; read-out: Effective Concentration for 50% of binding (EC50), mannose", "value": "~20", "unit": "mM"}]}
